In experiment [1] the target is T1, recombinant human tPA (rh-tPA: abcam ab92637) (human, UniProt P00750 36-562).
T1 construct: Bought protein; also called tPA antigen
Nature of the experiment: binding ELISA, plate coated with human tPA; reference TPAi-1 RHP/RKA IgG1. An excerpt:
(§1) Binding activity of the purified TPAi-1 RHP/RKA F(ab′)2 to the human tPA antigen was compared to that of the purified TPAi-1 RHP/RKA whole IgG1 antibody and RHP/RKA Fab in a binding ELISA. […] The EC50 values for the IgG1 and Fab are in agreement with those seen in earlier experiments. There is a consistent 4-fold difference in avidity between these two formats.
A general note: An ELISA detects its analyte on a solid surface through an enzyme-linked reagent.

Experiment [2] deals with T1, recombinant human tPA (rh-tPA: abcam …). Nature of the experiment: binding ELISA, plate coated with human tPA.
Text: as §1

The target is the same in experiment [3]. Nature of the experiment: binding ELISA, plate coated with human tPA; Fab as Expi293 conditioned medium. The source says: (§2) Binding activity of the TPAi-1 RHP/RKA Fab to the human tPA antigen was compared to that of the purified TPAi-1 RHP/RKA antibody in a binding ELISA. […] Following purification of TPAi-1 RHP/RKA Fab from a large scale culture, its binding to human tPA was reconfirmed by ELISA (FIG. 23). In this assay, plateauing of both binding curves was more apparent.

For experiment [4] the target is unchanged. Nature of the experiment: cell-based or functional assay.
Experiment [5] has the same target. Nature of the experiment: binding ELISA, plate coated with human tPA; reference TPAi-1 RHP/RKA Fab.
Text: as §2

Experiment [6] shares this target. Nature of the experiment: binding ELISA to human tPA after serum incubation. How it is done: Purified samples of humanised antibodies TPAi-1 RHE/RKA and RHP/RKA were incubated in mouse, human and cynomolgus serum (4.10.1). The binding abilities of the antibodies after 29 days incubation were measured by binding ELISA to human tPA. For each antibody, one ELISA plate compared the binding of the 4° C. control sample to samples incubated at 37° C. in PBS and human serum. A second ELISA plate compared the binding of the 4° C. control sample to samples incubated at 37° C. in mouse and cynomolgus serum. […] Therefore the TPAi-1 RHE/RKA and RHP/RKA antibodies retained their binding capabilities on incubation in mouse, human and cynomolgus serum for 29 days.

T1 sequence (P00750 36-562 limits assumed): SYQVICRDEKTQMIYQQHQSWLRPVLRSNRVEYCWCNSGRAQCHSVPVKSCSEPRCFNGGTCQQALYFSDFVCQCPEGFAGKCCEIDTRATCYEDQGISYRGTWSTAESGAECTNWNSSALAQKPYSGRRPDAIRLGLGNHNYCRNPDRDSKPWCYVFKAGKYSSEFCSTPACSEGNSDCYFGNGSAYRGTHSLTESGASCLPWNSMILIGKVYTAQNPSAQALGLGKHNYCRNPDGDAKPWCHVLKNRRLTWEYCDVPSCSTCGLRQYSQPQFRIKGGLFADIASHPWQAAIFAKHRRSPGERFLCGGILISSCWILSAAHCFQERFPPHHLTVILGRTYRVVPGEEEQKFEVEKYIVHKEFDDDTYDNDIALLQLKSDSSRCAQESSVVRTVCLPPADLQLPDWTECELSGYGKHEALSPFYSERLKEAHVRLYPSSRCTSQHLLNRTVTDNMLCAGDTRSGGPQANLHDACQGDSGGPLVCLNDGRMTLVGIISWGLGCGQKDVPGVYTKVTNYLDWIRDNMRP

B1: TPAi-1 RHP/RKA Fab (Fab, V domains shown)
VH: QVQLVQSGAEVKKPGASVKVSCKASGNTSYWINWVRQATGQGLEWMGRIDPGGGSTGYAQKFQGRVTMTRDTSISTAYMELSSLRSEDTAVYYCASYYYAMAYWGQGTLVTVSS
VL: DVVMTQSPLSLPVTPGEPASISCRSSQSIVHSNGNTYLDWYLQKPGQSPQLLIYKVSNRASGVPDRFSGSGSGTDFTLKISRVEAEDVGVYYCFQGSHVPWTFGGGTKVEIK
notes: Recombinant Fab: RHP variable region in pHuG1_Fab vector with RKA in pHuK, expressed in Expi293 cells; also called TPAi-1 RHP/PKA Fab; humanised Fab
For the molecule B1, the “fold difference in avidity between IgG1 and Fab” value in experiment [1] was 4 fold. Besides, the EC50 worked out at 1.68 nM in experiment [2] and 1.15 nM in experiment [3]. In addition, the “inhibition of human plasma clot lysis (t-PA 1.5 nM, A405 nm turbidity)” value in experiment [4] is ~2 fold (amount against TPAi-1 RHP/RKA).

B2: TPAi-1 RHP/RKA F(ab')2 (other)
VH: QVQLVQSGAEVKKPGASVKVSCKASGNTSYWINWVRQATGQGLEWMGRIDPGGGSTGYAQKFQGRVTMTRDTSISTAYMELSSLRSEDTAVYYCASYYYAMAYWGQGTLVTVSS
VL: DVVMTQSPLSLPVTPGEPASISCRSSQSIVHSNGNTYLDWYLQKPGQSPQLLIYKVSNRASGVPDRFSGSGSGTDFTLKISRVEAEDVGVYYCFQGSHVPWTFGGGTKVEIK
notes: F(ab')2 made by pepsin digestion of TPAi-1 RHP/RKA IgG1 kappa and gel filtration
Consider B2, for which the EC50 in experiment [2] was 0.379 nM.

B3: TPAi-1 RHP/RKA (antibody, V domains shown)
VH: QVQLVQSGAEVKKPGASVKVSCKASGNTSYWINWVRQATGQGLEWMGRIDPGGGSTGYAQKFQGRVTMTRDTSISTAYMELSSLRSEDTAVYYCASYYYAMAYWGQGTLVTVSS
VL: DVVMTQSPLSLPVTPGEPASISCRSSQSIVHSNGNTYLDWYLQKPGQSPQLLIYKVSNRASGVPDRFSGSGSGTDFTLKISRVEAEDVGVYYCFQGSHVPWTFGGGTKVEIK
notes: Human IgG1 kappa (pHuG1 / pHuK vectors); also called humanised TPAi-1 (RHP/RKA); humanized TPAi-1
B3: the EC50 in experiment [2] was determined as 0.475 nM. In addition, the “plateau A650 of the binding curve against the plateau of the Fab curve” value in experiment [5] is roughly 1.4 fold.

B4: TPAi-1 RHE/RKA (antibody, V domains shown)
VH: QVQLVQSGAEVKKPGASVKVSCKASGNTSYWINWVRQATGQGLEWMGRIDPGGGSTGYAQKFQGRVTMTRNTSISTAYMELSSLRSEDTAVYYCASYYYAMAYWGQGTLVTVSS
VL: DVVMTQSPLSLPVTPGEPASISCRSSQSIVHSNGNTYLDWYLQKPGQSPQLLIYKVSNRASGVPDRFSGSGSGTDFTLKISRVEAEDVGVYYCFQGSHVPWTFGGGTKVEIK
notes: Human IgG1 kappa
As to B4, the binding result in experiment [6] was “binds”.

The term EC50 denotes the concentration at which the effect is half-maximal.
